Reference: the supplement of paper PMC9112550, “Optimization of the antimicrobial peptide Bac7 by deep mutational scanning” (BMC Biology, 2022)

Tested on: Escherichia coli TOP10
Test: shrunken log2 fold change of peptide-encoding DNA abundance (4.5 h post-induction vs induction); higher = less antimicrobial activity (less host growth inhibition)
Conditions: time post-induction: 4.5 h; library: site-saturation at positions 5, 18, 19, 20
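Further: peptides expressed intracellularly from a pBAD plasmid library in pooled LB shake-flask culture, induced with 0.3% L-arabinose, DNA abundance read by NGS, three biological replicates, DESeq2 with apeglm shrinkage.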

Sequence	shrunken log2 fold change
RRIRIRPPRLPRPRPRPFYAPRP	-0.251
RRIRLRPPRLPRPRPRPWETPRP	0.0162
RRIRSRPPRLPRPRPRPVHEPRP	-0.185
RRIRCRPPRLPRPRPRPSWRPRP	-0.0716
RRIRQRPPRLPRPRPRPKVLPRP	0.0378
RRIRHRPPRLPRPRPRPGEDPRP	0.0147
RRIRDRPPRLPRPRPRPTKFPRP	0.138
RRIRNRPPRLPRPRPRPGCTPRP	0.0156
RRIRMRPPRLPRPRPRPVRMPRP	0.132
RRIRIRPPRLPRPRPRPPYKPRP	-0.386
RRIRQRPPRLPRPRPRPTYMPRP	-0.106
RRIRCRPPRLPRPRPRPTDDPRP	2.22
RRIRQRPPRLPRPRPRPDTCPRP	0.0121
RRIRQRPPRLPRPRPRPFAQPRP	-0.0906
RRIRDRPPRLPRPRPRPQTMPRP	-0.067
RRIRFRPPRLPRPRPRPQRGPRP	0.353
RRIRHRPPRLPRPRPRPSHNPRP	-0.433
RRIRMRPPRLPRPRPRPYPLPRP	-0.141
RRIRGRPPRLPRPRPRPHCNPRP	0.427
RRIRYRPPRLPRPRPRPIYLPRP	-0.0172
RRIRKRPPRLPRPRPRPGMGPRP	0.606
RRIRWRPPRLPRPRPRPCWWPRP	0.22
RRIRQRPPRLPRPRPRPRSHPRP	0.183
RRIRSRPPRLPRPRPRPLYDPRP	-0.113
RRIRDRPPRLPRPRPRPNVWPRP	0.234

Sequence	shrunken log2 fold change
RRIRERPPRLPRPRPRPGGDPRP	0.0586
RRIRERPPRLPRPRPRPCDAPRP	-0.171
RRIRWRPPRLPRPRPRPFTVPRP	-0.512
RRIRCRPPRLPRPRPRPNTKPRP	-0.358
RRIRLRPPRLPRPRPRPYWEPRP	-0.0613
RRIRTRPPRLPRPRPRPKFTPRP	-0.0912
RRIRWRPPRLPRPRPRPRVTPRP	1.75
RRIRQRPPRLPRPRPRPTMKPRP	-0.314
RRIRFRPPRLPRPRPRPDHYPRP	-0.184
RRIRTRPPRLPRPRPRPEHDPRP	-0.0214
RRIRGRPPRLPRPRPRPDHSPRP	-0.0179
RRIRQRPPRLPRPRPRPQIYPRP	0.0392
RRIRLRPPRLPRPRPRPWHQPRP	0.0225
RRIRKRPPRLPRPRPRPPRDPRP	1.01
RRIRRRPPRLPRPRPRPNSPPRP	-0.0118
RRIRWRPPRLPRPRPRPAFFPRP	0.111
RRIRARPPRLPRPRPRPIVLPRP	-0.121
RRIRVRPPRLPRPRPRPAPDPRP	0.377
RRIRLRPPRLPRPRPRPCTLPRP	-0.328
RRIRQRPPRLPRPRPRPWFNPRP	-0.359
RRIRSRPPRLPRPRPRPETSPRP	0.358
RRIRRRPPRLPRPRPRPICWPRP	0.388
RRIRIRPPRLPRPRPRPLMYPRP	-0.513
RRIRWRPPRLPRPRPRPLTTPRP	0.235
RRIRFRPPRLPRPRPRPPYIPRP	-0.282

Sequence	shrunken log2 fold change
RRIRYRPPRLPRPRPRPYICPRP	-0.234
RRIRVRPPRLPRPRPRPKQYPRP	-0.558
RRIRLRPPRLPRPRPRPDKTPRP	-0.146
RRIRIRPPRLPRPRPRPSCIPRP	-0.0523
RRIRWRPPRLPRPRPRPHCVPRP	-0.169
RRIRTRPPRLPRPRPRPNWYPRP	-0.382
RRIRPRPPRLPRPRPRPFIIPRP	-0.854
RRIRTRPPRLPRPRPRPWMLPRP	-0.0281
RRIRKRPPRLPRPRPRPRSVPRP	0.402
RRIRTRPPRLPRPRPRPADYPRP	-0.226
RRIRQRPPRLPRPRPRPQGHPRP	-0.017
RRIRSRPPRLPRPRPRPYGMPRP	-0.0661
RRIRTRPPRLPRPRPRPRHPPRP	0.225
RRIRARPPRLPRPRPRPGIAPRP	0.331
RRIRVRPPRLPRPRPRPNRWPRP	-0.0283
RRIRLRPPRLPRPRPRPPEDPRP	0.0763
RRIRGRPPRLPRPRPRPNDCPRP	-0.04
RRIRWRPPRLPRPRPRPICRPRP	-0.0371
RRIRSRPPRLPRPRPRPSEGPRP	-0.559
RRIRPRPPRLPRPRPRPKEIPRP	-0.0621
RRIRWRPPRLPRPRPRPAFEPRP	0.183
RRIRNRPPRLPRPRPRPEMRPRP	-0.0181
RRIRQRPPRLPRPRPRPNKVPRP	-0.468
RRIRQRPPRLPRPRPRPDVEPRP	-0.0335
RRIRNRPPRLPRPRPRPDTPPRP	0.0123

Sequence	shrunken log2 fold change
RRIRARPPRLPRPRPRPQGEPRP	0.294
RRIRSRPPRLPRPRPRPSQKPRP	-0.158
RRIRQRPPRLPRPRPRPAQSPRP	0.29
RRIRERPPRLPRPRPRPHDHPRP	-0.224
RRIRVRPPRLPRPRPRPDWEPRP	0.00682
RRIRNRPPRLPRPRPRPKCGPRP	-0.0686
RRIRIRPPRLPRPRPRPKSPPRP	-0.0939
RRIRRRPPRLPRPRPRPVNLPRP	0.219
RRIRGRPPRLPRPRPRPDVMPRP	1.33
RRIRKRPPRLPRPRPRPQYLPRP	-0.0967
RRIRGRPPRLPRPRPRPMNFPRP	-0.0655
RRIRIRPPRLPRPRPRPYWNPRP	-0.694
RRIRWRPPRLPRPRPRPNKVPRP	-0.129
RRIRMRPPRLPRPRPRPKSIPRP	0.301
RRIRERPPRLPRPRPRPLHGPRP	-0.212
RRIRTRPPRLPRPRPRPRRRPRP	0.411
RRIRPRPPRLPRPRPRPSARPRP	0.186
RRIRMRPPRLPRPRPRPAARPRP	0.975
RRIRNRPPRLPRPRPRPYYYPRP	-0.0857
RRIRPRPPRLPRPRPRPMVCPRP	-0.0948
RRIRKRPPRLPRPRPRPFTSPRP	0.093
RRIRARPPRLPRPRPRPRTVPRP	0.457
RRIRKRPPRLPRPRPRPAHVPRP	0.03
RRIRLRPPRLPRPRPRPKCLPRP	0.117
RRIRLRPPRLPRPRPRPPAQPRP	0.888

Sequence	shrunken log2 fold change
RRIRTRPPRLPRPRPRPFIPPRP	-0.312
RRIRFRPPRLPRPRPRPLARPRP	-0.0473
RRIRKRPPRLPRPRPRPNSMPRP	-0.115
RRIRHRPPRLPRPRPRPYLNPRP	-1.2
RRIRPRPPRLPRPRPRPNFFPRP	0.323
RRIRLRPPRLPRPRPRPCVYPRP	-0.352
RRIRWRPPRLPRPRPRPYRIPRP	-0.209
RRIRIRPPRLPRPRPRPPDAPRP	0.5
RRIRSRPPRLPRPRPRPTHDPRP	0.221
RRIRQRPPRLPRPRPRPTCIPRP	-0.0736
RRIRHRPPRLPRPRPRPFDQPRP	-0.0783
RRIRKRPPRLPRPRPRPGMSPRP	0.361
RRIRGRPPRLPRPRPRPLGEPRP	1.08
RRIRYRPPRLPRPRPRPNCMPRP	-0.974
RRIRWRPPRLPRPRPRPNDKPRP	-0.291
RRIRARPPRLPRPRPRPPHSPRP	0.902
RRIRDRPPRLPRPRPRPGQPPRP	-0.181
RRIRIRPPRLPRPRPRPSIWPRP	-0.0823
RRIRERPPRLPRPRPRPSCCPRP	0.294
RRIRGRPPRLPRPRPRPKYGPRP	-0.111
RRIRTRPPRLPRPRPRPDLMPRP	-0.121
RRIRPRPPRLPRPRPRPCESPRP	0.183
RRIRFRPPRLPRPRPRPKPYPRP	-0.109
RRIRWRPPRLPRPRPRPITGPRP	0.047
RRIRDRPPRLPRPRPRPQTVPRP	0.0628

Sequence	shrunken log2 fold change
RRIRVRPPRLPRPRPRPCIFPRP	-0.0604
RRIRGRPPRLPRPRPRPPEPPRP	0.397
RRIRKRPPRLPRPRPRPSWFPRP	-0.168
RRIRLRPPRLPRPRPRPYEPPRP	-0.0278
RRIRHRPPRLPRPRPRPMRRPRP	0.00585
RRIRVRPPRLPRPRPRPRCYPRP	-0.31
RRIRRRPPRLPRPRPRPGNAPRP	0.304
RRIRARPPRLPRPRPRPKFSPRP	0.173
RRIRSRPPRLPRPRPRPMPDPRP	0.235
RRIRCRPPRLPRPRPRPADYPRP	-0.263
RRIRSRPPRLPRPRPRPLNQPRP	0.479
RRIRGRPPRLPRPRPRPITVPRP	-0.0412
RRIRERPPRLPRPRPRPGCSPRP	-0.0673
RRIRWRPPRLPRPRPRPQEEPRP	0.0983
RRIRMRPPRLPRPRPRPPQQPRP	0.945
RRIRPRPPRLPRPRPRPPWEPRP	0.0889
RRIRVRPPRLPRPRPRPKNPPRP	-0.17
RRIRERPPRLPRPRPRPQPFPRP	0.217
RRIRKRPPRLPRPRPRPCTCPRP	0.00906
RRIRCRPPRLPRPRPRPETRPRP	0.209
RRIRCRPPRLPRPRPRPHSCPRP	-0.132
RRIRGRPPRLPRPRPRPWNMPRP	-0.0271
RRIRFRPPRLPRPRPRPWYIPRP	-0.623
RRIRDRPPRLPRPRPRPVRCPRP	0.339
RRIRLRPPRLPRPRPRPYVMPRP	-0.194
